Laboratory results reported in patent US20260250403A1 (BIOCYTOGEN PHARMACEUTICALS BEIJING, published 2026).
Residue numbers refer to the chain shown, from its start. Numbers in names are those of the source.

T1: dCD40-His (CD40 Protein, Canine, Recombinant (His Tag), Sino Biological Inc., Cat #: 70105-D08H) (dog, UniProt Q7YRL5 21-194)
T1 construct: Bought protein; also called dog CD40; not shown: His tag
T1 sequence (looked up): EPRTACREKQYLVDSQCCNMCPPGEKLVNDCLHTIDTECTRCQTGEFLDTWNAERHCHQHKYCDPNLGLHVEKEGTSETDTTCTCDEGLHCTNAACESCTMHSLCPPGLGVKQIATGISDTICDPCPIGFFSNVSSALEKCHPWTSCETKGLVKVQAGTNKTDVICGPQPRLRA

B1: 12B5-IgG4-FLAA (antibody, V domains shown)
VH: QVQLVQSGPGLVKPSETLSLTCTVSGGSISYYYWSWIRQPPGKGLEWIGHISYSGSTNYNPSLKSRVTISEDTSKKQFSLKLDSVTAADTAVYYCAGGIVGARRGFDFWGQGTLVTVSS
VL: EIVMTQSPATLSLSPGERATLSCRASQSVSNNLAWYQQKPGQAPRLLIYDASNRAADIPARFSGSGSGTDFTLTISSLEPEDFAVYYCQQRNNWPPTFGQGTKVEIKR
notes: Rest: human IgG4 constant regions with FLAA mutations (F234A and L235A, EU numbering); copies: 2 + 2
B2: 2F8-IgG4-FLAA (antibody, V domains shown)
VH: EVQLVQSGGGVVQPGRSLRLSCAASGFSFSSYAMHWVRQVPGKGLEWVSVISYDGDNKYHAESVKGRFTISRDNSKNILYLQMNSLRPEDTAVYYCARRGTVTNYYSYSGLDVWGQGTTVTVSS
VL: DIQLTQSPLSLPVTPGEPASISCRSSQSLLYSNGKNYLDWYLQKPGQSPQLLIYLASNRASGVPDRFSGSGSGTDFTLKISRVEAEDVGVYFCMQALQTPRTFGQGTKVEIKR
notes: Rest: human IgG4 constant regions with FLAA mutations (F234A and L235A, EU numbering)
B3: 6A4-IgG4-FLAA (antibody, V domains shown)
VH: QVQLVQSGGGLVQPGGSLRLSCAASGFTFSNYVMSWVRQAPGKGLEWVSTIRGSGISTYYTDSVKGRFTTSRDNPKNTLFLQMSSLRAEDTAVYYCAKGIVGATTPFDYWGQGTLVTVSS
VL: B1 VL with M4L, S30R, N31S, N32F, D50E, A51T, A56T, D57G, N92S, N93D
notes: as for B2
B4: Bleselumab analog (antibody, human IgG4, V domains shown)
VH: QLQLQESGPGLLKPSETLSLTCTVSGGSISSPGYYGGWIRQPPGKGLEWIGSIYKSGSTYHNPSLKSRVTISVDTSKNQFSLKLSSVTAADTAVYYCTRPVVRYFGWFDPWGQGTLVTVSS
VL: AIQLTQSPSSLSASVGDRVTITCRASQGISSALAWYQQKPGKAPKLLIYDASNLESGVPSRFSGSGSGTDFTLTISSLQPEDFATYYCQQFNSYPTFGQGTKVEIKR

These binders were tested against T2, hCD40-His (Human CD40 protein having a His-Tag, Beijing ACROBiosystems Co. Ltd., Cat #: CD0-H5228) (human, UniProt P25942 21-193) (assay: SPR, Biacore 8K, Protein A chip, CD40-His as analyte, 1:1 Langmuir fit).
T2 construct: Bought protein; not shown: His tag
T2 sequence (P25942 21-193 limits assumed): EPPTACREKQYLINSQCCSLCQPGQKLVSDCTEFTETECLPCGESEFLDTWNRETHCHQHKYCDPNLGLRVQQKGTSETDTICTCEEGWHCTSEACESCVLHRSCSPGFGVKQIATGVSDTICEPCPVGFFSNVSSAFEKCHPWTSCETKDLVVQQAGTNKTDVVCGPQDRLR
Description: (§1) Purified anti-CD40 antibodies at concentrations of 1 μg/ml with 1×HBS-EP+ buffer (PH 7.4) were then injected at 1 μl/min for 50 seconds. Dissociation was monitored for 400 seconds. The chip was regenerated after the last injection of each titration with a glycine solution (pH 2.0) at 30 μl/min for 30 seconds.
In the case of B1, the Kd is reported as 0.735 nM, the koff is reported as 0.000389 s⁻¹ and the kon is reported as 529000 M⁻¹ s⁻¹. B2 was tested, and the Kd was 0.351 nM, the koff was 0.000229 s⁻¹ and the kon was 654000 M⁻¹ s⁻¹. With B3 the Kd was 1.66 nM, the koff was 0.000511 s⁻¹ and the kon was 309000 M⁻¹ s⁻¹. Work on B4 yielded a Kd of 1.59 nM, a koff of 0.000682 s⁻¹ and a kon of 429000 M⁻¹ s⁻¹.

What follows are binders tested against T3, fasCD40-His (Cynomolgus CD40/TNFRSF5 Protein, His Tag, Beijing ACRO Biosystems Co. Ltd., Cat #: CD0-C52H6) (Macaca fascicularis, UniProt G7PG38 21-193) in the same assay as above.
T3 construct: Bought protein; also called monkey (Macaca fascicularis) CD40; not shown: His tag
Description: as §1
Binder B1 has a Kd of 0.495 nM, a koff of 0.000265 s⁻¹ and a kon of 535000 M⁻¹ s⁻¹. With B2 the Kd was 0.301 nM, the koff was 0.000297 s⁻¹ and the kon was 989000 M⁻¹ s⁻¹. Work on B3 yielded a Kd of 51.7 nM, a koff of 0.0149 s⁻¹ and a kon of 288000 M⁻¹ s⁻¹. With B4 the Kd was 3.35 nM, the koff was 0.000907 s⁻¹ and the kon was 270000 M⁻¹ s⁻¹.

What follows are binders tested against T1, dCD40-His (CD40 Protein, Canine, …) in the same assay as above.
Description: as §1
In the case of B1, the Kd is reported as 32.1 nM, the koff is reported as 0.0129 s⁻¹ and the kon is reported as 401000 M⁻¹ s⁻¹. Binder B2 has a Kd of 5.18 nM, a koff of 0.00266 s⁻¹ and a kon of 513000 M⁻¹ s⁻¹.

The binders below were run against hFcRn-His (FCGRT&B2M Heterodimer Protein, His Tag&Strep II Tag, Beijing ACROBiosystems Co. Ltd., Cat #: FCM-H5286) (human) (UniProt P61769) (assay: SPR, Biacore 8K or T200, Protein A chip, steady state affinity model, pH 6.0; pH 6.0).
Sequence of hFcRn-His (FCGRT&B2M Heterodimer Protein, His Tag&Strep II Tag, Beijing ACROBiosystems Co. Ltd., Cat #: FCM-H5286) (human) (chain, as listed by the source limits assumed, chain 1 of 2): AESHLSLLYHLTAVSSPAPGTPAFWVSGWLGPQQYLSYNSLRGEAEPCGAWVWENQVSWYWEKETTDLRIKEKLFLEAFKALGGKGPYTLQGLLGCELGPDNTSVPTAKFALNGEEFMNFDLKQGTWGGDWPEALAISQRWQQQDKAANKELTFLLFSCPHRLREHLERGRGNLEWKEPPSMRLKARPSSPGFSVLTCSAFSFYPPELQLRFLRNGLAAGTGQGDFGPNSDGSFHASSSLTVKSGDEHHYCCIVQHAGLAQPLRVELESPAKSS
Sequence of hFcRn-His (FCGRT&B2M Heterodimer Protein, His Tag&Strep II Tag, Beijing ACROBiosystems Co. Ltd., Cat #: FCM-H5286) (human) (P61769 21-119 limits assumed, chain 2 of 2): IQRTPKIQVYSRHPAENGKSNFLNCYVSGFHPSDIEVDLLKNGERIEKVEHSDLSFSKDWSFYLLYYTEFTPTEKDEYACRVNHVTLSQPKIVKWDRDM
B1 was tested, and the Kd was 497 nM.
